Changes are numbered by the printed parent chain.
What was measured:
[1] = system: T1, C(Acm)GGGGfpipR-PEG5-rRAPGKLTCLASYCWLFWTGIA
T1 sequence: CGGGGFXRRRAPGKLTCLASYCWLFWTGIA

[2] = system: T2, Dpr-LTCLASYCWLF
T2 sequence: XLTCLASYCWLF

[3] = system: T3, EGRRDKLTCLASYCWLVGHGQH
T3 sequence: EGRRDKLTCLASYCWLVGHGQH

[4] = system: T4, GRAMAAEPWP RQAPG KLTCLASYCWLFWTGIA
T4 sequence: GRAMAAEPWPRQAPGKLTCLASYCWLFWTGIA

[5] = system: T5, HQQRRKLTCLAGYCWLFVLGPS
T5 sequence: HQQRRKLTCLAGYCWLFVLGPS

[6] = system: T6, K-MeLeu-TCLASYCWLF
T6 sequence: KLTCLASYCWLF

[7] = system: T7, K-k-MeLeu-TCLASYCWLF
T7 sequence: KKLTCLASYCWLF

[8] = system: T8, KKLTCLASYCWLF
T8 sequence: KKLTCLASYCWLF

[9] = system: T9, KLT-Dap-LASY-Glu-WLF
T9 sequence: KLTXLASYEWLF

[10] = system: T10, KLT-Glu-LASY-Dap-WLF
T10 sequence: KLTELASYXWLF

[11] = system: T11, KLTCLASYCALF
T11 sequence: KLTCLASYCALF

[12] = system: T12, KLTCLASYcWLF
T12 sequence: KLTCLASYCWLF

[13] = system: T13, KLTCRASYCQLF
T13 sequence: KLTCRASYCQLF

[14] = system: T14, KLtCLASYCWLF
T14 sequence: KLTCLASYCWLF

[15] = system: T15, LQLSYGEQRQ SRAPG KLTCLASYCWLFWTGIA
T15 sequence: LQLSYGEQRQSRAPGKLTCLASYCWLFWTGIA

[16] = system: T16, Lys(Me)-LTCLASYCWLF
T16 sequence: KLTCLASYCWLF

[17] = system: T17, NGGMQKPACLASQCWLFANPLP
T17 sequence: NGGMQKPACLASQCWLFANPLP

[18] = system: T18, PQTRDPSSRD RRAPG KLTCLASYCWLFWTGIA
T18 sequence: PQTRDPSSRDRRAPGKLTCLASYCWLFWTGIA

[19] = system: T19, PRIRTSGPGSRSASGKLTCLASYCWLFWTGIA
T19 sequence: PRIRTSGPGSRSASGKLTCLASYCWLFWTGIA

[20] = system: T20, PRIRTVGPGSRSASGKLTCFASYCWLFWTGIA
T20 sequence: T19 sequence with S6V, L20F

[21] = system: T21, PRIRTVGPGSRSASGKSTCLASYCWLFWTGIA
T21 sequence: T19 sequence with S6V, L17S

[22] = system: T22, PRIRTVGSGSRSASGKLTCLASYCWLFWTGIA
T22 sequence: T19 sequence with S6V, P8S

[23] = system: T23, PRIrTVGPGSrSASGKSTCLASYCWLFWTGIA-PEG4-Pra
T23 sequence: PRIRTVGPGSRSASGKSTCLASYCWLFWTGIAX

[24] = system: T24, RKAPGKLQCLASYCWLFWTGIA
T24 sequence: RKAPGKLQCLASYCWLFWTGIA

[25] = system: T25, RQLWNKLTCLASYCALIGLSGT
T25 sequence: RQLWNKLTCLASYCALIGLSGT

[26] = system: T26, RRAK(PEG2-Biotin)GKLTCLASYCWLFWTGIA
T26 sequence: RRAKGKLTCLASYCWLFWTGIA

[27] = system: T27, RRAPGK(PEG2-Biotin)LTCLASYCWLFWTGIA
T27 sequence: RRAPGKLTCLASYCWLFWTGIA

[28] = system: T28, RRAPGK-MeLeu-TCLASYCWLFWTGIA
T28 sequence: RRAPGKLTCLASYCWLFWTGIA

[29] = system: T29, RRAPGKLCALASYACLFWTGIA-COOH
T29 sequence: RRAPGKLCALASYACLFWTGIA

[30] = system: T30, RRAPGKLQCLASYCWLFWTG-Tle-A
T30 sequence: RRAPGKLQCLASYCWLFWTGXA

[31] = system: T31, RRAPGKLQCLASYCWLFWTG
T31 sequence: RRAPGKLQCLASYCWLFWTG

[32] = system: T32, RRAPGKLT-Lys-LASY-Glu-WLFWTGIA-CONH2
T32 sequence: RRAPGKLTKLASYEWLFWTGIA

[33] = system: T33, RRAPGKLTCLASYCWLF WTGWC RDTASHACDS
T33 sequence: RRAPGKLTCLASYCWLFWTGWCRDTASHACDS

[34] = system: T34, RRAPGKLTCLASYCWLF YTGIA HGHPMEHRKS
T34 sequence: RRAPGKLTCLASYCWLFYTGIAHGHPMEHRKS

[35] = system: T35, RRAPGKLTCLASYCWLFWTGIA-COOH
T35 sequence: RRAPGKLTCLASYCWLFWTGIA

[36] = system: T36, RRAPGKLTCLASYCWLFWTGiA
T36 sequence: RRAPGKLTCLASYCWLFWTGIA

[37] = system: T37, RRAPGKLTCLASYCWLfWTGIA
T37 sequence: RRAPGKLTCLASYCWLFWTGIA

[38] = system: T38, RRAPGKLtCLASYCWLFWTGIA
T38 sequence: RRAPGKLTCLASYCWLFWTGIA

[39] = system: T39, RRKPGKLQCLASYCWLFWTGIA
T39 sequence: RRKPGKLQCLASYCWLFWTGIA

[40] = system: T40, SKQARPISPDrRAAGKLTCLASYCWLFWTGIA
T40 sequence: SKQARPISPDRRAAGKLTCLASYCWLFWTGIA

[41] = system: T41, SKQGRPIAPDrRAAGKLTCLASYCWLFWTGIA
T41 sequence: T40 sequence with A4G, S8A

[42] = system: T42, SKQGRPISADrRAAGKLTCLASYCWLFWTGIA
T42 sequence: T40 sequence with A4G, P9A

[43] = system: T43, SKQGRPISPDrRAAGKLTCLASYCWLFWT
T43 sequence: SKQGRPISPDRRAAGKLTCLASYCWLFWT

[44] = system: T44, SRIrTVSPGSrSASGKSTCLASYCWLFWTGIA
T44 sequence: T19 sequence with P1S, S6V, G7S, L17S

[45] = system: T45, TALSRGLVTM RTAPD KLTCLASYCWLFWTGIA
T45 sequence: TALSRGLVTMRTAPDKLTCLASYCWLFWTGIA

[46] = system: T46, VSGTGRLTCVASYCWMFQLGSF
T46 sequence: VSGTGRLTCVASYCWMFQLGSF

[47] = system: T47, aigtwflwcysalctlkgparr (retro-inverso)
T47 sequence: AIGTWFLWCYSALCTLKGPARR

[48] = system: T48, compound 10
T48 sequence: KLTCLASYCWLFWTGIA

[49] = system: T49, compound 1
T49 sequence: KLTCLASYCWLF

[50] = system: T50, rRAAGKLTCLASACWLFATGIA
T50 sequence: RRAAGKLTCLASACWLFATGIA

human Factor IXa
Vmax, FXa generation assay [1]: > 3
Vmax, FXa generation assay [2]: > 2
Vmax, FXa generation assay [3]: > 0.3
Vmax, FXa generation assay [4]: > 2
Vmax, FXa generation assay [5]: > 2
Vmax, FXa generation assay [6]: > 2
Vmax, FXa generation assay [7]: > 3
Vmax, FXa generation assay [8]: > 3
Vmax, FXa generation assay; (++) means 1-2 [9]: (++)
Vmax, FXa generation assay; (++) means 1-2 [10]: (++)
Vmax, FXa generation assay [11]: > 3
Vmax, FXa generation assay [12]: > 3
Vmax, FXa generation assay [13]: > 2
Vmax, FXa generation assay [14]: > 2
Vmax, FXa generation assay; (++) means 1-2 [15]: (++)
Vmax, FXa generation assay; (++) means 1-2 [16]: (++)
Vmax, FXa generation assay; (++) means 1-2 [17]: (++)
Vmax, FXa generation assay [18]: > 3
Vmax, FXa generation assay [19]: > 3
Vmax, FXa generation assay [20]: > 2
Vmax, FXa generation assay [21]: > 3
Vmax, FXa generation assay [22]: > 3
Vmax, FXa generation assay [23]: > 3
Vmax, FXa generation assay [24]: > 2
Vmax, FXa generation assay; (++) means 1-2 [25]: (++)
Vmax, FXa generation assay; (++) means 1-2 [26]: (++)
Vmax, FXa generation assay; (++) means 1-2 [27]: (++)
Vmax, FXa generation assay; (++) means 1-2 [28]: (++)
Vmax, FXa generation assay [29]: > 0.3
Vmax, FXa generation assay [30]: > 2
Vmax, FXa generation assay [31]: > 2
Vmax, FXa generation assay; (++) means 1-2 [32]: (++)
Vmax, FXa generation assay; (++) means 1-2 [33]: (++)
Vmax, FXa generation assay [34]: > 3
Vmax, FXa generation assay [35]: > 2
Vmax, FXa generation assay; (++) means 1-2 [36]: (++)
Vmax, FXa generation assay; (++) means 1-2 [37]: (++)
Vmax, FXa generation assay; (++) means 1-2 [38]: (++)
Vmax, FXa generation assay [39]: > 2
Vmax, FXa generation assay [40]: > 3
Vmax, FXa generation assay [41]: > 3
Vmax, FXa generation assay [42]: > 3
Vmax, FXa generation assay [43]: > 2
Vmax, FXa generation assay [44]: > 3
Vmax, FXa generation assay; (++) means 1-2 [45]: (++)
Vmax, FXa generation assay; (++) means 1-2 [46]: (++)
Vmax, FXa generation assay [47]: > 2
Vmax, FXa generation assay with hFIXa; (++) means 1-2 [48]: (++)
(kcat/KM)app (M^-1s^-1) of FIXa on the chromogenic substrate, compound 1 at 10 µM [49]: 1360 M⁻¹ s⁻¹
Vmax (mOD/min min), with phospholipids [49]: 3.98 mOD/min min
Vmax (mOD/min min), without phospholipids [49]: 2.6 mOD/min min
Vmax, FXa generation assay with hFIXa [49]: > 2
kcat (min^-1) of hFIXa for FX, compound at 3 µM [49]: 0.0144 min⁻¹
Δ KM (Km compound/Km buffer) [49]: 0.31
Vmax, FXa generation assay; (++) means 1-2 [50]: (++)
